Reference: the Human Domainome abundance scans (Beltran et al. 2025)
± gives the uncertainty stated by the source.

B1: Max-interacting protein 1, residues 70 to 120; numbered along this chain, P50539 (parent)
chain: STHNELEKNRRAHLRLCLERLKVLIPLGPDCTRHTTLGLLNKAKAHIKKLE
B2: Cyclin-F, residues 28 to 80; numbered along this chain, P41002 (parent)
chain: RNLTILSLPEDVLFHILKWLSVEDILAVRAVHSQLKDLVDNHASVWACASFQE

Variants of: B1
Assay: abundance fitness (aPCA) (normalised: wild type 0, dead -1); higher = more abundant; growth selection in yeast, the domain comes from the species named
Conditions: Homo sapiens

| Variant | abundance fitness |
| --- | --- |
| E5D | -0.021 ± 0.15 |
| E5C | -0.991 ± 0.32 |
| N4D | -0.134 ± 0.15 |
| N4K | -0.168 ± 0.13 |
| N4Y | -0.547 ± 0.14 |
| N4Q | 0.041 ± 0.15 |
| N4P | -0.276 ± 0.13 |
| N4I | 0.278 ± 0.21 |
| N4A | -0.258 ± 0.096 |
| N4E | -0.142 ± 0.17 |
| N4G | -0.223 ± 0.1 |
| N4F | -0.713 ± 0.2 |
| N4L | -0.48 ± 0.092 |
| N4M | -0.289 ± 0.12 |
| N4R | -0.255 ± 0.093 |
| N4T | 0.135 ± 0.13 |
| N4H | -0.381 ± 0.23 |
| N4V | -0.404 ± 0.1 |
| N4C | -0.33 ± 0.13 |
| T2P | -0.35 ± 0.078 |
| T2F | -0.586 ± 0.097 |
| T2N | 0.128 ± 0.075 |

| Variant | abundance fitness |
| --- | --- |
| T2D | -0.209 ± 0.085 |
| T2L | -0.519 ± 0.075 |
| T2K | 0.002 ± 0.086 |
| T2C | -0.415 ± 0.12 |
| T2G | -0.69 ± 0.12 |
| T2M | -0.63 ± 0.098 |
| T2Y | -0.088 ± 0.095 |
| T2R | -0.631 ± 0.1 |
| T2H | -0.1 ± 0.081 |
| T2Q | 0.161 ± 0.11 |
| T2S | -0.414 ± 0.074 |
| T2I | -0.24 ± 0.079 |
| T2V | -0.663 ± 0.088 |
| T2W | -0.836 ± 0.19 |
| T2A | -0.303 ± 0.086 |
| H3D | 0.023 ± 0.15 |
| H3V | -0.053 ± 0.11 |
| H3K | 0.178 ± 0.14 |
| H3Q | -0.023 ± 0.13 |
| H3F | 0.168 ± 0.2 |
| H3W | -0.549 ± 0.14 |
| H3E | -0.047 ± 0.11 |

| Variant | abundance fitness |
| --- | --- |
| H3S | 0.065 ± 0.1 |
| H3N | -0.162 ± 0.17 |
| H3Y | -0.078 ± 0.21 |
| H3M | 0.152 ± 0.12 |
| H3P | 0.018 ± 0.12 |
| H3C | 0.021 ± 0.14 |
| H3A | -0.099 ± 0.1 |
| H3G | 0.197 ± 0.08 |
| S1E | -0.48 ± 0.49 |
| S1L | -0.59 ± 0.15 |
| S1D | -0.475 ± 0.35 |
| S1T | -0.577 ± 0.34 |
| S1A | -0.6 ± 0.17 |
| S1N | -0.158 ± 0.3 |
| S1W | -0.916 ± 0.18 |
| S1F | -0.095 ± 0.18 |
| S1M | -0.797 ± 0.38 |
| S1C | -0.216 ± 0.17 |
| S1H | -0.285 ± 0.31 |
| S1R | -0.573 ± 0.26 |
| S1G | -0.21 ± 0.16 |
| S1Y | -0.444 ± 0.31 |

Variants of: B2
Assay: as above
Conditions: Homo sapiens

| Variant | abundance fitness |
| --- | --- |
| F14W | 0.347 ± 0.083 |
| F14Y | -0.153 ± 0.15 |
| F14S | -0.158 ± 0.08 |
| F14Q | -0.08 ± 0.1 |
| F14V | 0.198 ± 0.075 |
| I16M | -0.32 ± 0.14 |
| I16A | -0.901 ± 0.14 |
| E53G | -0.069 ± 0.13 |
| E53C | -0.527 ± 0.41 |
| E53I | -0.533 ± 0.49 |
| E53L | -0.543 ± 0.42 |
| E53S | -0.467 ± 0.22 |
| E53R | -0.068 ± 0.15 |
| E53M | -0.39 ± 0.34 |
| V39Q | -0.362 ± 0.3 |
| V39C | -0.245 ± 0.12 |
| V39P | -0.931 ± 0.19 |
| V39I | -0.074 ± 0.098 |
| V39K | -0.767 ± 0.15 |
| N2R | -0.078 ± 0.085 |
| N2Y | -0.366 ± 0.14 |
| N2F | -0.407 ± 0.19 |
| N2Q | -0.331 ± 0.14 |
| L8C | -0.993 ± 0.38 |
| L8S | -0.635 ± 0.33 |
| D40C | -0.912 ± 0.22 |

| Variant | abundance fitness |
| --- | --- |
| D40F | -0.828 ± 0.22 |
| D40R | -0.749 ± 0.11 |
| D40E | -0.684 ± 0.17 |
| D40S | -0.432 ± 0.12 |
| D40P | -0.791 ± 0.2 |
| V45C | -0.027 ± 0.11 |
| V45M | -0.082 ± 0.21 |
| V45W | 0.1 ± 0.14 |
| V45H | 0.137 ± 0.13 |
| V45L | -0.076 ± 0.088 |
| V45Y | 0.154 ± 0.17 |
| V45D | 0.289 ± 0.15 |
| L13Q | -0.093 ± 0.19 |
| L13R | -0.633 ± 0.26 |
| H15Y | -0.388 ± 0.075 |
| H15S | -0.235 ± 0.12 |
| H15Q | -0.356 ± 0.17 |
| H15M | -0.116 ± 0.14 |
| H15W | -0.561 ± 0.18 |
| H15K | 0.216 ± 0.15 |
| H15V | -0.55 ± 0.13 |
| H15F | -0.499 ± 0.15 |
| L6F | -0.356 ± 0.16 |
| L6K | -0.806 ± 0.18 |
| L6A | -0.898 ± 0.15 |
| L6H | -0.691 ± 0.24 |

| Variant | abundance fitness |
| --- | --- |
| L6V | -0.665 ± 0.13 |
| L6E | -0.889 ± 0.24 |
| L6Y | -0.423 ± 0.15 |
| L6Q | -0.427 ± 0.15 |
| L6S | -0.885 ± 0.13 |
| L6N | -0.691 ± 0.17 |
| L6R | -0.83 ± 0.099 |
| L6P | -0.674 ± 0.16 |
| L17S | -0.896 ± 0.14 |
| L17I | 0.148 ± 0.26 |
| L17Q | -0.782 ± 0.21 |
| L17R | -0.774 ± 0.12 |
| L17D | -0.868 ± 0.28 |
| L17C | -0.223 ± 0.14 |
| L17A | -0.781 ± 0.13 |
| S50H | -0.319 ± 0.16 |
| S50V | -0.621 ± 0.14 |
| S50T | -0.166 ± 0.13 |
| S50Y | -0.369 ± 0.2 |
| S50D | 0.029 ± 0.14 |
| W46A | -0.283 ± 0.1 |
| W46M | -0.27 ± 0.13 |
| W46N | -0.128 ± 0.18 |
| W46E | -0.016 ± 0.13 |
| D24F | -1.06 ± 0.34 |
| D24C | -0.716 ± 0.13 |

| Variant | abundance fitness |
| --- | --- |
| D24R | -0.797 ± 0.12 |
| D24H | -0.708 ± 0.25 |
| D24N | -1.11 ± 0.21 |
| Q34I | -0.129 ± 0.088 |
| Q34M | -0.156 ± 0.075 |
| Q34S | -0.06 ± 0.065 |
| Q34W | -0.753 ± 0.1 |
| A43C | -0.006 ± 0.37 |
| K36S | -0.788 ± 0.11 |
| K36T | -0.723 ± 0.16 |
| K36L | -0.625 ± 0.12 |
| K36G | -0.891 ± 0.14 |
| K36R | 0.054 ± 0.084 |
| K36D | -0.886 ± 0.28 |
| V12Y | -0.846 ± 0.21 |
| V12T | -0.493 ± 0.13 |
| A27P | -0.44 ± 0.17 |
| A27Q | -0.089 ± 0.18 |
| V31E | -1.16 ± 0.24 |
| V31K | -0.809 ± 0.24 |
| V31R | -0.754 ± 0.14 |
| V31I | -0.594 ± 0.11 |
| V31W | -0.769 ± 0.19 |
